Target: T1, IFNAR1 (UniProt P17181 28-436)
T1 sequence (looked up): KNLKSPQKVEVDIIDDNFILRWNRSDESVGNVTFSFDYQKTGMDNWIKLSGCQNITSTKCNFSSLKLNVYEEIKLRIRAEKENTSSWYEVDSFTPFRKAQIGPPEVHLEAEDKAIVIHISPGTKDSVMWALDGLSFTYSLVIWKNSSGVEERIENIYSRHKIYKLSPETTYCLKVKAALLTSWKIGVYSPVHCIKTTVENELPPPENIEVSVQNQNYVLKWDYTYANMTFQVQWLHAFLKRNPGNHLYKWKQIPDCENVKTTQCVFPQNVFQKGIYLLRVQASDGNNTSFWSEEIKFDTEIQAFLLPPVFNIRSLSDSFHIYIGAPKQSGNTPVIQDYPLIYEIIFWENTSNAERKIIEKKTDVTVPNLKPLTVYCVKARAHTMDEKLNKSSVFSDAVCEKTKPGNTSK
Assay: native MS

stoichiometry N: 1
B1: Interferon-β1a (ligand, UniProt P01574 22-187, looked up)
chain: MSYNLLGFLQRSSNFQCQKLLWQLNGRLEYCLKDRMNFDIPEEIKQLQQFQKEDAALTIYEMLQNIFAIFRQDSSSTGWNETIVENLLANVYHQINHLKTVLEEKLEKEDFTRGKLMSSLHLKRYYGRILHYLKAKEYSHCAWTIVRVEILRNFYFINRLTGYLRN
modifications: glycoprotein with a carbohydrate chain, several glycoforms (glycosylation site printed as Asn-90)

Reference: paper PMC2827695 (Journal of the American Society for Mass Spectrometry, 2009)
